Experiments:
[1] = target: intact ZIKV particles (ZIKV envelope protein) (Zika virus); experiment: direct ELISA on coated intact ZIKV particles (10-fold dilutions), antibody 1 ug/ml, anti-mouse IgG-HRP; LOD = blank + 3 SD
[2] = target: intact ZIKV particles (ZIKV envelope protein) (Zika virus); experiment: direct ELISA on coated intact ZIKV particles (10-fold dilutions), antibody 1 ug/ml, anti-mouse IgG-HRP; FPLR fit
[3] = target: intact ZIKV particles (ZIKV envelope protein) (Zika virus); experiment: direct ELISA on coated intact ZIKV particles, mono-arm peptide 20 uM in urine (1:1) or serum (1:10); data not shown
[4] = target: intact ZIKV particles (ZIKV envelope protein) (Zika virus); experiment: direct ELISA on coated intact ZIKV particles (10-fold dilutions), biotinylated peptide 20 uM, streptavidin-HRP; FPLR fit
[5] = target: intact ZIKV particles (ZIKV envelope protein) (Zika virus); experiment: direct ELISA on coated intact ZIKV particles (10-fold dilutions), biotinylated peptide 20 uM, streptavidin-HRP; LOD = blank + 3 SD
[6] = target: intact ZIKV particles (ZIKV envelope protein) (Zika virus); experiment: direct ELISA on coated intact ZIKV particles (10-fold dilutions), biotinylated peptide 5 uM, streptavidin-HRP; FPLR fit
[7] = target: intact ZIKV particles (ZIKV envelope protein) (Zika virus); experiment: direct ELISA on coated intact ZIKV particles (10-fold dilutions), biotinylated peptide 5 uM, streptavidin-HRP; LOD = blank + 3 SD
[8] = target: intact ZIKV particles (ZIKV envelope protein) (Zika virus); experiment: direct ELISA on coated intact ZIKV particles (10-fold dilutions), biotinylated peptide 0.5 uM, streptavidin-HRP; LOD = blank + 3 SD
[9] = target: intact DENV-2 particles (Dengue virus serotype 2); experiment: direct ELISA, plates coated with 10^5 copies/mL of intact virus particles
[10] = target: intact DENV-3 particles (Dengue virus serotype 3); experiment: as above
[11] = target: intact ZIKV particles (ZIKV envelope protein) (Zika virus); experiment: direct ELISA on coated intact ZIKV particles (10-fold dilutions), biotinylated peptide 0.5 uM, streptavidin-HRP; FPLR fit
[12] = target: intact DENV-1 particles (Dengue virus serotype 1); experiment: direct ELISA, plates coated with 10^5 copies/mL of intact virus particles
[13] = target: intact ZIKV particles (ZIKV envelope protein) (Zika virus); experiment: direct ELISA on coated intact ZIKV particles (10-fold dilutions), biotinylated peptide 2 uM, streptavidin-HRP; LOD = blank + 3 SD
[14] = target: intact ZIKV particles (ZIKV envelope protein) (Zika virus); experiment: direct ELISA on coated intact ZIKV particles (10-fold dilutions), biotinylated peptide 2 uM, streptavidin-HRP; FPLR fit

For antibody 4G2 hybridoma mouse IgG2a, which LOD (log[ZIKV], copies/mL) [1] is on record?
The LOD (log[ZIKV], copies/mL) was 5.8.

What about the FPLR C50 (log[ZIKV], copies/mL) [2] of the same molecule?
Its FPLR C50 (log[ZIKV], copies/mL) is 6.2.

What about the FPLR minimum [2] of the same molecule?
The FPLR minimum was 0.04 ΔA.

Which results are given for CKRNATP (maleimide-PEG2-biotin on the N-terminal cysteine) [mono-arm peptide X1]?
lowest ZIKV concentration detected in urine or serum [3]: 1e+07 copies/mL; FPLR C50 (log[ZIKV], copies/mL) [4]: 6.1; FPLR minimum [4]: 0.03 ΔA; LOD (log[ZIKV], copies/mL) [5]: 4.8

Which results are given for MDSPIKGPGCCGPGKTDAYS (designed binder, maleimide-PEG2-biotin on the cysteines of the bridge (thioether)) [clamp peptide C8]?
FPLR C50 (log[ZIKV], copies/mL) [6]: 6.2; FPLR minimum [6]: 0.03 ΔA; LOD (log[ZIKV], copies/mL) [7]: 4.7

For AGRRPGPGCCGPGLRGHA (designed binder, maleimide-PEG2-biotin on the cysteines of the bridge (thioether)) [clamp peptide C6], which LOD (log[ZIKV], copies/mL) [8] is on record?
Its LOD (log[ZIKV], copies/mL) is 3.5.

And the signal decrease against the ZIKV signal [9]?
Its signal decrease against the ZIKV signal is 45%.

And the signal decrease against the ZIKV signal [10]?
Its signal decrease against the ZIKV signal is 55%.

And the FPLR C50 (log[ZIKV], copies/mL) [11]?
Its FPLR C50 (log[ZIKV], copies/mL) is 5.2.

And the FPLR minimum [11]?
The FPLR minimum was 0.05 ΔA.

With WPWIGTGPGCCGPGKRNATP (designed binder, maleimide-PEG2-biotin on the cysteines of the bridge (thioether)) [clamp peptide C3] as the molecule, how does the LOD (log[ZIKV], copies/mL) [8] read?
Its LOD (log[ZIKV], copies/mL) is 3.5.

What about the signal decrease against the ZIKV signal [12] of the same molecule?
Its signal decrease against the ZIKV signal is 70%.

And the signal decrease against the ZIKV signal [9]?
The signal decrease against the ZIKV signal was 70%.

What about the signal decrease against the ZIKV signal [10] of the same molecule?
Its signal decrease against the ZIKV signal is 70%.

What about the FPLR C50 (log[ZIKV], copies/mL) [11] of the same molecule?
The FPLR C50 (log[ZIKV], copies/mL) was 5.3.

And the FPLR minimum [11]?
The FPLR minimum was 0.05 ΔA.

For MDSPIKGPGCCGPGKRNATP (designed binder, maleimide-PEG2-biotin on the cysteines of the bridge (thioether)) [clamp peptide C7], which signal decrease against the ZIKV signal [12] is on record?
Its signal decrease against the ZIKV signal is 70%.

What about the signal decrease against the ZIKV signal [9] of the same molecule?
Its signal decrease against the ZIKV signal is 70%.

And the signal decrease against the ZIKV signal [10]?
The signal decrease against the ZIKV signal was 70%.

What about the FPLR C50 (log[ZIKV], copies/mL) [6] of the same molecule?
The FPLR C50 (log[ZIKV], copies/mL) was 5.8.

What about the FPLR minimum [6] of the same molecule?
Its FPLR minimum is 0.01 ΔA.

What about the LOD (log[ZIKV], copies/mL) [7] of the same molecule?
The LOD (log[ZIKV], copies/mL) was 3.7.

Which LOD (log[ZIKV], copies/mL) [13] does the source give for WPHTQGPGCCGPGSWPGQ (designed binder, maleimide-PEG2-biotin on the cysteines of the bridge (thioether)) [clamp peptide C1] here?
The LOD (log[ZIKV], copies/mL) was 4.8.

What about the FPLR C50 (log[ZIKV], copies/mL) [14] of the same molecule?
The FPLR C50 (log[ZIKV], copies/mL) was 6.3.

And the FPLR minimum [14]?
The FPLR minimum was 0.03 ΔA.

WPHTQGPGCCGPGLRGHA (designed binder, maleimide-PEG2-biotin on the cysteines of the bridge (thioether)) [clamp peptide C2] was tested. Which LOD (log[ZIKV], copies/mL) [13] did it give?
Its LOD (log[ZIKV], copies/mL) is 4.5.

And the FPLR C50 (log[ZIKV], copies/mL) [14]?
The FPLR C50 (log[ZIKV], copies/mL) was 6.2.

And the FPLR minimum [14]?
The FPLR minimum was 0.05 ΔA.

With AGRRPGPGCCGPGSWPGQ (designed binder, maleimide-PEG2-biotin on the cysteines of the bridge (thioether)) [clamp peptide C5] as the molecule, how does the FPLR C50 (log[ZIKV], copies/mL) [6] read?
Its FPLR C50 (log[ZIKV], copies/mL) is 6.4.

What about the FPLR minimum [6] of the same molecule?
The FPLR minimum was 0.01 ΔA.

And the LOD (log[ZIKV], copies/mL) [7]?
Its LOD (log[ZIKV], copies/mL) is 5.8.

Which results are given for CLRGHA (maleimide-PEG2-biotin on the N-terminal cysteine) [mono-arm peptide P2]?
lowest ZIKV concentration detected in urine or serum [3]: 1e+06 copies/mL; FPLR C50 (log[ZIKV], copies/mL) [4]: 6.2; FPLR minimum [4]: 0.04 ΔA; LOD (log[ZIKV], copies/mL) [5]: 4.5

Which results are given for WPWIGTGPGCCGPGKTDAYS (designed binder, maleimide-PEG2-biotin on the cysteines of the bridge (thioether)) [clamp peptide C4]?
LOD (log[ZIKV], copies/mL) [13]: 5.7; FPLR C50 (log[ZIKV], copies/mL) [14]: 6.3; FPLR minimum [14]: 0.02 ΔA

How did the LOD (log[ZIKV], copies/mL) [5] turn out when CSWPGQ (maleimide-PEG2-biotin on the N-terminal cysteine) [mono-arm peptide P1] was run?
Its LOD (log[ZIKV], copies/mL) is 6.8.

For CKTDAYS (maleimide-PEG2-biotin on the N-terminal cysteine) [mono-arm peptide X2], which FPLR C50 (log[ZIKV], copies/mL) [4] is on record?
Its FPLR C50 (log[ZIKV], copies/mL) is 6.1.

And the FPLR minimum [4]?
Its FPLR minimum is 0.01 ΔA.

And the LOD (log[ZIKV], copies/mL) [5]?
Its LOD (log[ZIKV], copies/mL) is 5.8.

From patent US20190385705A1
